Measured values published in US8541373B2, “BChE albumin fusions for the treatment of cocaine abuse” (priority 2009, dated 2013).

Tested on: cocaine
Experiment: Plasma cocaine, benzoylecgonine and ecgonine methyl ester (LC-MS) and cocaine PK after IV cocaine post-AlbuBChE
Format: in vivo, cynomolgus monkeys
Protocol: Blood was placed into K2EDTA blood collection tubes with esterase inhibitor diisopropylfluorophosphate (DFP). Tubes were inverted several times and placed on wet ice upon collection. Samples were centrifuged at 2-8° C. within 45 minutes of collection. The resultant plasma was recovered and a single 200 μL aliquot of plasma was placed into polypropylene tubes. Plasma samples were frozen over dry ice and stored at −75±15° C.
The following outline describes the LC-MS-based assay employed for the measurement of cocaine in plasma samples. Prior to MS analysis, plasma samples, calibration standards and controls were extracted using supported liquid extraction (SLE-ISOLUTE, Biotage). Twenty-five microliters of samples (25 μL) received 150 μl of 5% Ammonium hydroxide and 25 μl internal standard solution (Cocaine-d3). After mixing and transfer to SLE plate, samples were eluted with methylene chloride and evaporated to dryness. After resuspension in 50 μl of reconstitution solution—5% ACM in 10 mM ammonium acetate in water, 10 μl was injected onto Thermo Hypercarb column at 0.5 ml/min. Mobile phase was biphasic. Mass spectrophotometric detection was performed using Api 4000, APCI positive interface and Multiple Reaction Monitoring (MRM). Plasma concentrations of cocaine, benzoylecgonine and ecgonine methyl ester were determined using this assay.
When the data permits, pharmacokinetic parameter values for cocaine and its metabolites were determined using plasma concentration-times profiles for individual animals at all the study days of cocaine administration. […] Specifically the model for non-compartmental analysis with IV bolus input for cocaine and extravascular input for the metabolites.

[1] = 0.2 mg/kg IM, cocaine 1 mg/kg IV 120 hr post-AlbuBChE, 40 min after cocaine
[2] = 0.2 mg/kg IM, cocaine 1 mg/kg IV 120 hr post-AlbuBChE, 60 min after cocaine
[3] = 0.2 mg/kg IM, cocaine 1 mg/kg IV 240 hr post-AlbuBChE
[4] = 0.2 mg/kg IM, cocaine 1 mg/kg IV 240 hr post-AlbuBChE, 5 min after cocaine
[5] = 0.2 mg/kg IM, cocaine 1 mg/kg IV 240 hr post-AlbuBChE, 10 min after cocaine
[6] = 0.2 mg/kg IM, cocaine 1 mg/kg IV 240 hr post-AlbuBChE, 15 min after cocaine
[7] = 0.2 mg/kg IM, cocaine 1 mg/kg IV 240 hr post-AlbuBChE, 20 min after cocaine
[8] = 0.2 mg/kg IM, cocaine 1 mg/kg IV 240 hr post-AlbuBChE, 30 min after cocaine
[9] = 0.2 mg/kg IM, cocaine 1 mg/kg IV 240 hr post-AlbuBChE, 40 min after cocaine
[10] = 0.2 mg/kg IM, cocaine 1 mg/kg IV 240 hr post-AlbuBChE, 60 min after cocaine
[11] = 1 mg/kg IM, cocaine 1 mg/kg IV 2 hr post-AlbuBChE
[12] = 1 mg/kg IM, cocaine 1 mg/kg IV 2 hr post-AlbuBChE, 5 min after cocaine
[13] = 1 mg/kg IM, cocaine 1 mg/kg IV 2 hr post-AlbuBChE, 10 min after cocaine
[14] = 1 mg/kg IM, cocaine 1 mg/kg IV 2 hr post-AlbuBChE, 15 min after cocaine
[15] = 1 mg/kg IM, cocaine 1 mg/kg IV 2 hr post-AlbuBChE, 20 min after cocaine
[16] = 1 mg/kg IM, cocaine 1 mg/kg IV 2 hr post-AlbuBChE, 30 min after cocaine
[17] = 1 mg/kg IM, cocaine 1 mg/kg IV 2 hr post-AlbuBChE, 40 min after cocaine
[18] = 1 mg/kg IM, cocaine 1 mg/kg IV 2 hr post-AlbuBChE, 60 min after cocaine
[19] = 1 mg/kg IM, cocaine 1 mg/kg IV 48 hr post-AlbuBChE
[20] = 1 mg/kg IM, cocaine 1 mg/kg IV 48 hr post-AlbuBChE, 5 min after cocaine
[21] = 1 mg/kg IM, cocaine 1 mg/kg IV 48 hr post-AlbuBChE, 10 min after cocaine
[22] = 1 mg/kg IM, cocaine 1 mg/kg IV 48 hr post-AlbuBChE, 15 min after cocaine
[23] = 1 mg/kg IM, cocaine 1 mg/kg IV 48 hr post-AlbuBChE, 20 min after cocaine
[24] = 1 mg/kg IM, cocaine 1 mg/kg IV 48 hr post-AlbuBChE, 30 min after cocaine
[25] = 1 mg/kg IM, cocaine 1 mg/kg IV 48 hr post-AlbuBChE, 40 min after cocaine
[26] = 1 mg/kg IM, cocaine 1 mg/kg IV 48 hr post-AlbuBChE, 60 min after cocaine
[27] = 1 mg/kg IM, cocaine 1 mg/kg IV 96 hr post-AlbuBChE
[28] = 1 mg/kg IM, cocaine 1 mg/kg IV 96 hr post-AlbuBChE, 5 min after cocaine
[29] = 1 mg/kg IM, cocaine 1 mg/kg IV 96 hr post-AlbuBChE, 10 min after cocaine
[30] = 1 mg/kg IM, cocaine 1 mg/kg IV 96 hr post-AlbuBChE, 15 min after cocaine

Substance: AlbuBChE
- Ecgonine methyl ester plasma concentration (mean) [1]: 98 ng/mL
- Mean benzoylecgonine plasma concentration [1]: 61.4 ng/mL
- Mean cocaine plasma concentration [1]: 141 ng/mL
- Ecgonine methyl ester plasma concentration (mean) [2]: 82.9 ng/mL
- Mean benzoylecgonine plasma concentration [2]: 66.2 ng/mL
- Mean cocaine plasma concentration [2]: 64.7 ng/mL
- Mean benzoylecgonine AUC(0-t) [3]: 4089 ng·min/mL
- Mean cocaine AUC % Extrap [3]: 21.6%
- Mean cocaine AUC(0-t) [3]: 13693 ng·min/mL
- Mean cocaine AUC(0-∞) [3]: 17650 ng·min/mL
- Mean cocaine C0 [3]: 549 ng/mL
- Mean cocaine CI [3]: 57.4 mL/min/kg
- Mean cocaine Vss [3]: 2.181 L/kg
- Mean cocaine t½ [3]: 29.2 min
- Ecgonine methyl ester plasma concentration (mean) [4]: 20.1 ng/mL
- Mean benzoylecgonine plasma concentration [4]: 53.5 ng/mL
- Mean cocaine plasma concentration [4]: 453 ng/mL
- Ecgonine methyl ester plasma concentration (mean) [5]: 23.1 ng/mL
- Mean benzoylecgonine plasma concentration [5]: 53.3 ng/mL
- Mean cocaine plasma concentration [5]: 379 ng/mL
- Ecgonine methyl ester plasma concentration (mean) [6]: 25.1 ng/mL
- Mean benzoylecgonine plasma concentration [6]: 62.9 ng/mL
- Mean cocaine plasma concentration [6]: 297 ng/mL
- Ecgonine methyl ester plasma concentration (mean) [7]: 28.3 ng/mL
- Mean benzoylecgonine plasma concentration [7]: 63.7 ng/mL
- Mean cocaine plasma concentration [7]: 254 ng/mL
- Ecgonine methyl ester plasma concentration (mean) [8]: 33.9 ng/mL
- Mean benzoylecgonine plasma concentration [8]: 69.8 ng/mL
- Mean cocaine plasma concentration [8]: 189 ng/mL
- Ecgonine methyl ester plasma concentration (mean) [9]: 38.8 ng/mL
- Mean benzoylecgonine plasma concentration [9]: 74.5 ng/mL
- Mean cocaine plasma concentration [9]: 133 ng/mL
- Ecgonine methyl ester plasma concentration (mean) [10]: 41.4 ng/mL
- Mean benzoylecgonine plasma concentration [10]: 80.9 ng/mL
- Mean cocaine plasma concentration [10]: 89.5 ng/mL
- Mean benzoylecgonine AUC(0-t) [11]: 1960 ng·min/mL
- Mean cocaine AUC(0-t) [11]: 7880 ng·min/mL
- Mean cocaine C0 [11]: 422 ng/mL
- Ecgonine methyl ester plasma concentration (mean) [12]: 235 ng/mL
- Mean benzoylecgonine plasma concentration [12]: 30.1 ng/mL
- Mean cocaine plasma concentration [12]: 308 ng/mL
- Ecgonine methyl ester plasma concentration (mean) [13]: 227 ng/mL
- Mean benzoylecgonine plasma concentration [13]: 33.2 ng/mL
- Mean cocaine plasma concentration [13]: 235 ng/mL
- Ecgonine methyl ester plasma concentration (mean) [14]: 276 ng/mL
- Mean benzoylecgonine plasma concentration [14]: 32.5 ng/mL
- Mean cocaine plasma concentration [14]: 179 ng/mL
- Ecgonine methyl ester plasma concentration (mean) [15]: 301 ng/mL
- Mean benzoylecgonine plasma concentration [15]: 32.5 ng/mL
- Mean cocaine plasma concentration [15]: 73.7 ng/mL
- Ecgonine methyl ester plasma concentration (mean) [16]: 291 ng/mL
- Mean benzoylecgonine plasma concentration [16]: 28.9 ng/mL
- Mean cocaine plasma concentration [16]: 102 ng/mL
- Ecgonine methyl ester plasma concentration (mean) [17]: 202 ng/mL
- Mean benzoylecgonine plasma concentration [17]: 38.4 ng/mL
- Mean cocaine plasma concentration [17]: 96.9 ng/mL
- Ecgonine methyl ester plasma concentration (mean) [18]: 189 ng/mL
- Mean benzoylecgonine plasma concentration [18]: 29.6 ng/mL
- Mean cocaine plasma concentration [18]: 19.7 ng/mL
- Mean benzoylecgonine AUC(0-t) [19]: 1668 ng·min/mL
- Mean cocaine AUC % Extrap [19]: 11.9%
- Mean cocaine AUC(0-t) [19]: 5965 ng·min/mL
- Mean cocaine AUC(0-∞) [19]: 6764 ng·min/mL
- Mean cocaine C0 [19]: 226 ng/mL
- Mean cocaine CI [19]: 150 mL/min/kg
- Mean cocaine Vss [19]: 4.304 L/kg
- Mean cocaine t½ [19]: 19.0 min
- Ecgonine methyl ester plasma concentration (mean) [20]: 201 ng/mL
- Mean benzoylecgonine plasma concentration [20]: 24.0 ng/mL
- Mean cocaine plasma concentration [20]: 176 ng/mL
- Ecgonine methyl ester plasma concentration (mean) [21]: 32.2 ng/mL
- Mean benzoylecgonine plasma concentration [21]: 23.7 ng/mL
- Mean cocaine plasma concentration [21]: 140 ng/mL
- Ecgonine methyl ester plasma concentration (mean) [22]: 48.2 ng/mL
- Mean benzoylecgonine plasma concentration [22]: 24.9 ng/mL
- Mean cocaine plasma concentration [22]: 152 ng/mL
- Ecgonine methyl ester plasma concentration (mean) [23]: 56.2 ng/mL
- Mean benzoylecgonine plasma concentration [23]: 26.7 ng/mL
- Mean cocaine plasma concentration [23]: 128 ng/mL
- Ecgonine methyl ester plasma concentration (mean) [24]: 63.8 ng/mL
- Mean benzoylecgonine plasma concentration [24]: 29.8 ng/mL
- Mean cocaine plasma concentration [24]: 87.0 ng/mL
- Ecgonine methyl ester plasma concentration (mean) [25]: 64.9 ng/mL
- Mean benzoylecgonine plasma concentration [25]: 29.6 ng/mL
- Mean cocaine plasma concentration [25]: 62.3 ng/mL
- Ecgonine methyl ester plasma concentration (mean) [26]: 57.3 ng/mL
- Mean benzoylecgonine plasma concentration [26]: 29.8 ng/mL
- Mean cocaine plasma concentration [26]: 29.1 ng/mL
- Mean benzoylecgonine AUC(0-t) [27]: 2741 ng·min/mL
- Mean cocaine AUC % Extrap [27]: 18.4%
- Mean cocaine AUC(0-t) [27]: 10044 ng·min/mL
- Mean cocaine AUC(0-∞) [27]: 12313 ng·min/mL
- Mean cocaine C0 [27]: 288 ng/mL
- Mean cocaine CI [27]: 81.6 mL/min/kg
- Mean cocaine Vss [27]: 2.94 L/kg
- Mean cocaine t½ [27]: 23.9 min
- Ecgonine methyl ester plasma concentration (mean) [28]: 138 ng/mL
- Mean benzoylecgonine plasma concentration [28]: 43.9 ng/mL
- Mean cocaine plasma concentration [28]: 265 ng/mL
- Ecgonine methyl ester plasma concentration (mean) [29]: 39.8 ng/mL
- Mean benzoylecgonine plasma concentration [29]: 41.2 ng/mL
- Mean cocaine plasma concentration [29]: 245 ng/mL
- Ecgonine methyl ester plasma concentration (mean) [30]: 42.9 ng/mL
- Mean benzoylecgonine plasma concentration [30]: 40.0 ng/mL
- Mean cocaine plasma concentration [30]: 218 ng/mL
